Earlier results in paper PMC3955120 (Journal of chromatography. B, Analytical technologies in …, 2013).
Where no end group is shown, it is not given here.

Settings: humans, i.v. infusion of kisspeptin-54, RIA, monoexponential decline

## kisspeptin-54 (GTSLSPPPESSGSPQQPGLSAPHSRQIPAPQGAVLVQREKDLPNYNWNSFGLRF-NH2; ends and bridges not checked; UniProt Q15726 68-121, looked up)
  half-life of post steady-state plasma kisspeptin-IR: 27.6 min
